Measured values reported in US8765721B2, “Composition comprising phosphatidyl serine and an antigen or allergen and the use thereof” (Vaccine Technology Limited, priority 2004, dated 2014).

Tests used:
Assay type in all cases: in vivo, rat
Details in all cases: no phosphatidyl serine, pooled group serum
[1] = system: IgE; test: Ovalbumin-specific IgE ELISA of serum of immunised rats
Protocol: (§1) Rats were injected with vaccine compositions comprising the ovalbumin antigen with and without di-oleoyl phosphatidyl serine, lyso-oleoyl phosphatidyl serine or stearoyl(X1)-arachidonoyl(X2) phosphatidyl serine and the concentrations of IgE, IgA and IgG are compared.
(§2) The animals were acclimatised for a period of 5 days prior to dosing. During the acclimatisation period animals were observed twice daily during the working week and once on each day during the weekend to evaluate the health status of the animals. Rats were then allocated to the following dose groups using computer-generated random order numbers.
(§3) On day 0, 20 μg of ovalbumin (OA) in phosphate buffered saline (PBS) with alhydrogel (AHG) adjuvant in a final volume of 0.5 mL was administered.
(§4) On days 21 and 42, 20 μg of ovalbumin (OA) in phosphate buffered saline (PBS) with the relevant test compound in a final volume of 0.5 ml was administered.
(§5) In each case, 0.5 mL of inoculum was injected subcutaneously into the scruff of the neck.
(§6) […] A blood sample was also taken from each animal on Days 15, 22, 29, 36, 43, 50, 57 and 64.
(§7) Serum was prepared by centrifugation of the blood sample at 2,500 rpm for 10 minutes and frozen at −20° C. The samples were then analysed by ELISA to establish the concentration of IgE, IgA and IgG1, IgG2a and IgG2b.
(§8) The purpose of an ELISA is to determine whether a particular protein is present in a sample and then enables quantification of how much is present. By coating the bottom of wells with ovalbumin (OVA) it is possible to bind anti-OVA specific antibodies. To detect only anti-OVA IgA antibodies anti-rat IgA conjugated to HRP was used as a secondary antibody. Quantification of specific antibodies in the rat sera samples was performed using antibody titrations. The data was reported as endpoint titers. Endpoint titers are defined as the last serum dilution giving an optical density value equal to twice the background optical density for the ELISA plate (buffer).

[2] = system: IgG2b; test: Ovalbumin-specific IgG2b ELISA of serum of immunised rats
Protocol: as §1, §2, §3, §4, §5, §6, §7, §8

[3] = system: IgA; test: Ovalbumin-specific IgA ELISA of serum of immunised rats
Protocol: as §1, §2, §3, §4, §5
On Day 0 a pre-inoculation blood sample was taken. A blood sample was also taken from each animal on Days 15, 22, 29, 36, 43, 50, 57 and 64.
as §7, §8

[4] = system: IgG1; test: Ovalbumin-specific IgG1 ELISA of serum of immunised rats
Protocol: as §1, §2, §3, §4
(§9) In each case, 0.5 mL of inoculum was injected subcutaneously into the scruff of the neck. […]
as §7
as §8, with “To detect only anti-OVA IgA antibodies anti-rat IgA conjugated to HRP was used as a secondary antibody.” left out

[5] = system: IgG2a; test: Ovalbumin-specific IgG2a ELISA of serum of immunised rats
Protocol: as §1, §2, §3, §4, §9, §7, §8

B1: ovalbumin (protein, UniProt P01012 2-386, looked up)
Ovalbumin: GSIGAASMEFCFDVFKELKVHHANENIFYCPIAIMSALAMVYLGAKDSTRTQINKVVRFDKLPGFGDSIEAQCGTSVNVHSSLRDILNQITKPNDVYSFSLASRLYAEERYPILPEYLQCVKELYRGGLEPINFQTAADQARELINSWVESQTNGIIRNVLQPSSVDSQTAMVLVNAIVFKGLWEKAFKDEDTQAMPFRVTEQESKPVQMMYQIGLFRVASMASEKMKILELPFASGTMSMLVLLPDEVSGLEQLESIINFEKLTEWTSSNVMEERKIKVYLPRMKMEEKYNLTSVLMAMGITDVFSSSANLSGISSAESLKISQAVHAAHAEINEAGREVVGSAEAGVDAASVSEEFRADHPFLFCIKHIATNAVLFFGRCVSP
notes: Group 2: ovalbumin antigen, 20 μg on days 21 and 42 without phosphatidyl serine, after Ova + Alh on day 0
Question: B1 was tested. Which IgE endpoint titer ([1]; Day 1) did it give?
Answer: 0

Question: And the IgE endpoint titer ([1]; Day 15)?
Answer: 0

Question: What about the IgE endpoint titer ([1]; Day 22) of the same molecule?
Answer: 0

Question: What about the IgE endpoint titer ([1]; Day 29) of the same molecule?
Answer: 0

Question: And the IgE endpoint titer ([1]; Day 36)?
Answer: 20

Question: And the IgE endpoint titer ([1]; Day 43)?
Answer: 20

Question: And the IgE endpoint titer ([1]; Day 50)?
Answer: 640

Question: And the IgE endpoint titer ([1]; Day 57)?
Answer: 80

Question: What about the IgE endpoint titer ([1]; Day 64) of the same molecule?
Answer: 40

Question: And the IgG2b endpoint titer ([2]; Day 1)?
Answer: 0

Question: What about the IgG2b endpoint titer ([2]; Day 15) of the same molecule?
Answer: 1280

Question: And the IgG2b endpoint titer ([2]; Day 22)?
Answer: 640

Question: And the IgG2b endpoint titer ([2]; Day 29)?
Answer: 640

Question: What about the IgG2b endpoint titer ([2]; Day 36) of the same molecule?
Answer: 640

Question: What about the IgG2b endpoint titer ([2]; Day 43) of the same molecule?
Answer: 640

Question: And the IgG2b endpoint titer ([2]; Day 50)?
Answer: 640

Question: What about the IgG2b endpoint titer ([2]; Day 57) of the same molecule?
Answer: 5120

Question: And the IgG2b endpoint titer ([2]; Day 64)?
Answer: 5120

Question: And the IgA endpoint titer ([3]; Day 1)?
Answer: 0

Question: What about the IgA endpoint titer ([3]; Day 15) of the same molecule?
Answer: 0

Question: And the IgA endpoint titer ([3]; Day 22)?
Answer: 0

Question: And the IgA endpoint titer ([3]; Day 29)?
Answer: 80

Question: And the IgA endpoint titer ([3]; Day 36)?
Answer: 320

Question: And the IgA endpoint titer ([3]; Day 43)?
Answer: 320

Question: What about the IgA endpoint titer ([3]; Day 50) of the same molecule?
Answer: 640

Question: And the IgA endpoint titer ([3]; Day 57)?
Answer: 1280

Question: And the IgA endpoint titer ([3]; Day 64)?
Answer: 640

Question: What about the IgG1 endpoint titer ([4]; Day 1) of the same molecule?
Answer: 0

Question: What about the IgG1 endpoint titer ([4]; Day 15) of the same molecule?
Answer: 320

Question: And the IgG1 endpoint titer ([4]; Day 22)?
Answer: 2560

Question: And the IgG1 endpoint titer ([4]; Day 29)?
Answer: 10240

Question: And the IgG1 endpoint titer ([4]; Day 36)?
Answer: 20480

Question: And the IgG1 endpoint titer ([4]; Day 43)?
Answer: 10240

Question: What about the IgG1 endpoint titer ([4]; Day 50) of the same molecule?
Answer: 10240

Question: And the IgG1 endpoint titer ([4]; Day 57)?
Answer: 10240

Question: And the IgG1 endpoint titer ([4]; Day 64)?
Answer: 20480

Question: What about the IgG2a endpoint titer ([5]; Day 1) of the same molecule?
Answer: 0

Question: What about the IgG2a endpoint titer ([5]; Day 15) of the same molecule?
Answer: 640

Question: And the IgG2a endpoint titer ([5]; Day 22)?
Answer: 1280

Question: What about the IgG2a endpoint titer ([5]; Day 29) of the same molecule?
Answer: 1280

Question: What about the IgG2a endpoint titer ([5]; Day 36) of the same molecule?
Answer: 2560

Question: And the IgG2a endpoint titer ([5]; Day 43)?
Answer: 5120

Question: And the IgG2a endpoint titer ([5]; Day 50)?
Answer: 20480

Question: What about the IgG2a endpoint titer ([5]; Day 57) of the same molecule?
Answer: 20480

Question: And the IgG2a endpoint titer ([5]; Day 64)?
Answer: 10240
